Data reported in doi:10.1101/2020.01.19.911941 (bioRxiv, 2020).

Legend:
sPD-1 V1 Fc (human) = sPD-1 V1 Fc (human) (UniProt Q15116); assay: SPR
[1] = target: mouse PD-L1 in wild-type parental MC38 cells (mouse (endogenous in MC38), UniProt Q9EP73 19-290); assay: flow cytometry on cells
mouse PD-L1 in wild-type parental MC38 cells, sequence (Q9EP73 19-290): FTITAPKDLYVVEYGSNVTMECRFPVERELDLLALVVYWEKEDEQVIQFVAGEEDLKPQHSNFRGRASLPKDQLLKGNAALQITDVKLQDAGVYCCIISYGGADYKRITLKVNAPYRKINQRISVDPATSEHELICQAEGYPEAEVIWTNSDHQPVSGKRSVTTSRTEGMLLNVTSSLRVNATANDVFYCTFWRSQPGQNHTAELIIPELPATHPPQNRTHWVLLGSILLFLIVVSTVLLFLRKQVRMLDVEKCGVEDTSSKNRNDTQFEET

B1: human PD-L2 (#10292-H08H, SinoBiological) (ligand)
chain: LFTVTVPKELYIIEHGSNVTLECNFDTGSHVNLGAITASLQKVENDTSPHRERATLLEEQLPLGKASFHIPQVQVRDEGQYQCIIIYGVAWDYKYLTLKVKASYRKINTHILKVPETDEVELTCQATGYPLAEVSWPNVSVPANTSHSRTPEGLYQVTSVLRLKPPPGRNFSCVFWNTHVRELTLASIDLQSQMEPRTHPT
B1 showed a fold improvement in binding affinity over wild type sPD-1 (sPD-1 V1 Fc (human)) of 200 fold.

B2: sPD-1 V2 Fc (Fc fusion)
chain: LDSPDRPWNPPTFSPALLVVTEGDNATFTCSFSNTSEGFVLNWYRMSPSNQTDKLAAFPEDRGQLGQDCRFRVTQLPNGRDFHMSVVRARRNDSGTYLCSAIVLAPKIQIKESLRVELRVTERRAEVPTAHPSPSPRPAGQFQTLV
In the case of B2, the “fold increase in binding signal over wild-type sPD-1” value [1] is reported as about 4 fold.
